Test [1] addresses FcγRIIIA 158F (CD16A F158), soluble monomer (human) (UniProt P08637). Briefly: Biacore SPR.
Test [2] concerns the target FcγRIIB (CD32B), soluble dimeric Fc fusion (human) (UniProt P31994). The test is described as follows: Biacore SPR.
For test [3], the target named is FcγRIIIA 158V (CD16A V158), soluble monomer (human) (UniProt P08637). The test is described as follows: Biacore SPR.
Test [4] addresses FcγRIIIA 158F (CD16A F158), soluble monomer (human) (UniProt P08637). Briefly: Biacore SPR; value on CD16A over value on CD32B.
The target of test [5] is FcγRIIIA 158V (CD16A V158), soluble monomer (human) (UniProt P08637). The test is described as follows: Biacore SPR; value on CD16A over value on CD32B.
Test [6] deals with FcγRIIIA (UniProt P08637). Briefly: ELISA.
Chain of FcγRIIIA (P08637 17-208 limits assumed): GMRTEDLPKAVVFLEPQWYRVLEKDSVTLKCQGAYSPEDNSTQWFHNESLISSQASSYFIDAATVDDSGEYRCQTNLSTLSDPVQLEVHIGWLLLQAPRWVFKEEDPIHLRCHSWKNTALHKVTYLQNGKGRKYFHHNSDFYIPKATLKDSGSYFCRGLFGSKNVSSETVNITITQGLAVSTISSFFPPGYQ

The values that follow come from patent US20080138349A1.

Chain of FcγRIIIA 158V (CD16A V158), soluble monomer (human) (P08637 17-208 F176V): as the sequence (P08637 17-208 limits assumed) above, with F160V counted along it
Chain of FcγRIIIA 158F (CD16A F158), soluble monomer (human) (P08637 17-208): as the sequence (P08637 17-208 limits assumed) above
Chain of FcγRIIB (CD32B), soluble dimeric Fc fusion (human) (P31994 43-217): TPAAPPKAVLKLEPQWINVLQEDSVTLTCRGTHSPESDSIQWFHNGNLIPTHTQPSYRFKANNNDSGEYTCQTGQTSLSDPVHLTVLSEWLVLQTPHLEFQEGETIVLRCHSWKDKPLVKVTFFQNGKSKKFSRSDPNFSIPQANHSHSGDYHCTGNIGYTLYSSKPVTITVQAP

For “Immunoglobulin with variant Fc region D270E (antibody)”, the Koff WT/Koff mutant in test [1] was 1.48; in test [2], 0.39; in test [3], 1.25. In test [4], the Ratio of Affinities CD16A F158/CD32B came out at 3.79. Moreover, the Ratio of Affinities CD16A V158/CD32B in test [5] was 3.21. The like results for “Immunoglobulin with variant Fc region G316D R416G D270E (antibody)” were, in that order, 2.49, 0.78, 2.18, 3.19 and 2.79. Regarding “Immunoglobulin with variant Fc region G316D R416G D270E F243L (antibody)”, the Koff WT/Koff mutant in test [1] stood at 1.34; in test [2], 0.2; in test [3], 1.5. In addition, in test [4], the Ratio of Affinities CD16A F158/CD32B worked out at 6.7. In addition, in test [5], the Ratio of Affinities CD16A V158/CD32B came out at 7.5. In the case of “Immunoglobulin with variant Fc region P247L N421K (antibody)”, the Koff WT/Koff mutant in test [1] was 1.73; in test [3], 1.29.

“Immunoglobulin with variant Fc region Q419H P396L D270E (antibody)”: the Koff WT/Koff mutant in test [2] was found to be 0.68; in test [3] it was 1.64.

As for “Immunoglobulin with variant Fc region R292G (antibody)”, the Koff WT/Koff mutant in test [2] was 0.25; in test [3], 1.54. In test [5], the Ratio of Affinities CD16A V158/CD32B came out at 6.2. Take “Immunoglobulin with variant Fc region R292P F243L (antibody)”: the Ratio of Affinities CD16A V158/CD32B in test [5] is 39.4. As for “Immunoglobulin with variant Fc region R292P V305I (antibody)”, the Ratio of Affinities CD16A V158/CD32B in test [5] worked out at 0.6. As for “Immunoglobulin with variant Fc region R292P V305I F243L P396L Y300L (antibody)”, the values for the Koff WT/Koff mutant in test [1], in test [2] and in test [3] were 8.25, 1.38 and 10.1, respectively. On to “ch4-4-20 A378V, N390I, V422I (from UniProt P01857 1-330) (antibody)”, for which the ELISA binding increase vs wt in test [6] came to 0.5 x. Consider “ch4-4-20 D280E, S354F, A431D, L441I (from UniProt P01857 1-330) (antibody)”, for which the ELISA binding increase vs wt in test [6] was 3 x.

“ch4-4-20 D312E, K327N, I378S (from UniProt P01857 1-330) (antibody)” registered an ELISA binding increase vs wt in test [6] of 0.5 x. In the case of “ch4-4-20 D399E, M428L (from UniProt P01857 1-330) (antibody)”, the ELISA binding decrease vs wt in test [6] amounted to 0.5 x. On to “ch4-4-20 D401V (from UniProt P01857 1-330) (antibody)”, for which, in test [6], the ELISA binding increase vs wt came out at 0.5 x. For “ch4-4-20 E216D, E345K, S375I (from UniProt P01857 1-330) (antibody)”, the ELISA binding increase vs wt in test [6] came to 0.5 x. Substance “ch4-4-20 F243L, R255L, E318K (from UniProt P01857 1-330) (antibody)” displayed an ELISA binding increase vs wt in test [6] of 1 x.

In test [6], “ch4-4-20 F275I, K334N, V348M (from UniProt P01857 1-330) (antibody)” gave an ELISA binding increase vs wt of 0.5 x. The same measure, in the same setting: the figure for “ch4-4-20 F275Y (from UniProt P01857 1-330) (antibody)” is 3 x; for “ch4-4-20 G385E, P247H (from UniProt P01857 1-330) (antibody)” it is 1 x; for “ch4-4-20 H224L (from UniProt P01857 1-330) (antibody)” it is 0.5 x. “ch4-4-20 H310Y, T289A, G337E (from UniProt P01857 1-330) (antibody)” yielded an ELISA binding increase vs wt in test [6] of 0.5 x. The substance “ch4-4-20 I377N (from UniProt P01857 1-330) (antibody)” returned an ELISA binding decrease vs wt in test [6] of 0.5 x. As for “ch4-4-20 K222N (from UniProt P01857 1-330) (antibody)”, the ELISA binding increase vs wt in test [6] was determined as 1 x. In test [6], “ch4-4-20 K222N, T335N, K370E, A378V, T394M (from UniProt P01857 1-330) (antibody)” yielded an ELISA binding increase vs wt of 1 x.

In test [6], “ch4-4-20 K246R, S298N, I377F (from UniProt P01857 1-330) (antibody)” displayed an ELISA binding increase vs wt of 1 x. As to “ch4-4-20 K246T, P396H (from UniProt P01857 1-330) (antibody)”, the ELISA binding increase vs wt in test [6] stood at 1 x. “ch4-4-20 K246T, Y319F (from UniProt P01857 1-330) (antibody)” gave an ELISA binding increase vs wt in test [6] of 1 x. On to “ch4-4-20 K288N, K326N (from UniProt P01857 1-330) (antibody)”, for which, in test [6], the ELISA binding increase vs wt was found to be 1 x. As to “ch4-4-20 K320E, K326E (from UniProt P01857 1-330) (antibody)”, the ELISA binding increase vs wt in test [6] stood at 1 x. Regarding “ch4-4-20 K326E, G385E (from UniProt P01857 1-330) (antibody)”, the ELISA binding increase vs wt in test [6] was 0.5 x. Substance “ch4-4-20 K326I, P396L (from UniProt P01857 1-330) (antibody)” showed an ELISA binding increase vs wt in test [6] of 2.9 x.

As for “ch4-4-20 K334E, T359N, T366S, Q386R (from UniProt P01857 1-330) (antibody)”, in test [6], the ELISA binding increase vs wt stood at 1 x. For the substance “ch4-4-20 K334I (from UniProt P01857 1-330) (antibody)”, in test [6], the ELISA binding increase vs wt is 1 x. In turn, “ch4-4-20 K334N (from UniProt P01857 1-330) (antibody)” registered an ELISA binding increase vs wt in test [6] of 0.5 x. “ch4-4-20 K370N, S440N (from UniProt P01857 1-330) (antibody)” gave an ELISA binding increase vs wt in test [6] of 1 x. For “ch4-4-20 N315I, V379M, T394M (from UniProt P01857 1-330) (antibody)”, in test [6], the ELISA IIIA binding vs wt is 1 X and the ELISA binding increase vs wt is 1 x. In test [6], “ch4-4-20 P227S, K290E (from UniProt P01857 1-330) (antibody)” came in with an ELISA binding increase vs wt of 1 x. As to “ch4-4-20 P247L (from UniProt P01857 1-330) (antibody)”, the ELISA binding increase vs wt in test [6] was found to be 0.5 x. Take “ch4-4-20 P247L, A431V, S442F (from UniProt P01857 1-330) (antibody)”: the ELISA binding vs wt in test [6] was 1 x. In the case of “ch4-4-20 P247L, I253N, K334N (from UniProt P01857 1-330) (antibody)”, the ELISA binding increase vs wt in test [6] turned out to be 3 x. As for “ch4-4-20 P247L, I377F (from UniProt P01857 1-330) (antibody)”, the ELISA binding increase vs wt in test [6] was found to be 1 x. “ch4-4-20 P291S, K288E, H268L, A141V (from UniProt P01857 1-330) (antibody)” had an ELISA binding decrease vs wt in test [6] of 0.5 x. In the case of “ch4-4-20 P291S, P353Q (from UniProt P01857 1-330) (antibody)”, the ELISA binding decrease vs wt in test [6] is 0.5 x. Substance “ch4-4-20 P343S, P353L, S375I, S383N (from UniProt P01857 1-330) (antibody)” showed an ELISA binding increase vs wt in test [6] of 0.5 x. In the case of “ch4-4-20 P396H (from UniProt P01857 1-330) (antibody)”, the ELISA binding increase vs wt in test [6] turned out to be 1 x. In test [6], “ch4-4-20 Q347H, A339V (from UniProt P01857 1-330) (antibody)” had an ELISA binding increase vs wt of 0.5 x. Take “ch4-4-20 R301C, M252L, S192T (from UniProt P01857 1-330) (antibody)”: the ELISA binding decrease vs wt in test [6] turned out to be 0.5 x. Consider “ch4-4-20 R301H, K340E, D399E (from UniProt P01857 1-330) (antibody)”, for which the ELISA binding decrease vs wt in test [6] came to 0.5 x. With “ch4-4-20 S219Y (from UniProt P01857 1-330) (antibody)”, the ELISA binding increase vs wt in test [6] was 1 x. As for “ch4-4-20 S298N, S407R (from UniProt P01857 1-330) (antibody)”, in test [6], the ELISA binding increase vs wt is 0.5 x.

“ch4-4-20 S383N, N384K, T256N, V262L, K218E, R214I, K205E, F149Y, K133M (from UniProt P01857 1-330) (antibody)” displayed an ELISA binding increase vs wt in test [6] of 0.5 x. Same read-out and setting: the figure for “ch4-4-20 S400P (from UniProt P01857 1-330) (antibody)” is 1 x; for “ch4-4-20 S407I (from UniProt P01857 1-330) (antibody)” it is 0.5 x.

The substance “ch4-4-20 S408I, V215I, V125L (from UniProt P01857 1-330) (antibody)” came in with an ELISA binding increase vs wt in test [6] of 0.5 x. In test [6], “ch4-4-20 S415I, L251F (from UniProt P01857 1-330) (antibody)” yielded an ELISA binding increase vs wt of 0.5 x. “ch4-4-20 T335N, K370E, A378V, T394M, S424L (from UniProt P01857 1-330) (antibody)”: the ELISA binding increase vs wt in test [6] worked out at 0.5 x. For the substance “ch4-4-20 T394M, V397M (from UniProt P01857 1-330) (antibody)”, the ELISA binding increase vs wt in test [6] amounted to 0.5 x.

In test [6], “ch4-4-20 V279L, P395S (from UniProt P01857 1-330) (antibody)” had an ELISA binding increase vs wt of 1 x.

In test [6], “ch4-4-20 V282E, V369I, L406F (from UniProt P01857 1-330) (antibody)” displayed an ELISA binding increase vs wt of 0.5 x. In test [6], “ch4-4-20 V282M (from UniProt P01857 1-330) (antibody)” came in with an ELISA binding increase vs wt of 1 x. Take “ch4-4-20 V284A, F372L (from UniProt P01857 1-330) (antibody)”: the ELISA binding vs wt in test [6] is 1 x.
